Patent publication US20110008302

T1: H3K4(me3) peptide ART-K(me3)-QTARKST
T1 chain: ARTKQTARKST

T2: H3K36(me2) peptide ATGGV-K(me2)-KPHRY
T2 chain: ATGGVKKPHRY


Experiments:
[1] = molecular target: T1, H3K4(me3) peptide ART-K(me3)-QTARKST
[2] = molecular target: T2, H3K36(me2) peptide ATGGV-K(me2)-KPHRY

Row | Protein | fluorescence coupled demethylation assay [1] | fluorescence coupled demethylation assay [2] | specific activity (ratio H3K36me2 versus H3K4me3 peptide) [2]
1 | bacterially expressed mouse Ndy1 fragment containing the JmjC, CXXC and PHD domains (aa 171-707) (protein) MWPQHLKEKQTEATNALAEMKYPKVKKYCLMSVKGCFTDFHIDFGGTSVWYHVFRGGKIFWLIPPTLHNLALYEEWVLSGKQSDIFLGDRVERCQRIELKQGYTFFIPSGWIHAVYTPVDSLVFGGNILHSFNVPMQLRIYEIEDRTRVQPKFRYPFYYEMCWYVLERYVYCVTQRSYLTQEYQRELMLIDAPRKTSVDGFSSDSWLDMEEESCEQQPQEEEEEEEDKEEEGDGADKTPKPPTDDPTSPTSTPPEDQDSTGKKPKAPAIRFLKRTLSNESEESVKSTSMPTDDPKTPTGSPATEVSTKWTHLTEFELKGLKALVEKLESLPENKKCVPEGIEDPQALLEGVKNVLKEHVDDDPTLAITGVPVVSWPKKTAKNRVVGRPKGKLGPASAVKLAANRTTAGARRRRTRCRKCEACLRTECGECHFCKDMKKFGGPGRMKQSCIMRQCIAPVLPHTAVCLVCGEAGKEDTVEEEEGKFNLMLMECSICNEIIHPGCLKIKESEGVVNDELPNCWECPKCNHAGKTGKQKRG | shown to demethylate both H3K36me2 and H3K4me3 peptides, with high and low efficiencies respectively | shown to demethylate both H3K36me2 and H3K4me3 peptides, with high and low efficiencies respectively | about three times higher specific activity towards the H3K36me2 versus the H3K4me3 peptide
2 | 171-707 Ndy1 fragment containing the Y221A mutation (protein) MWPQHLKEKQTEATNALAEMKYPKVKKYCLMSVKGCFTDFHIDFGGTSVWAHVFRGGKIFWLIPPTLHNLALYEEWVLSGKQSDIFLGDRVERCQRIELKQGYTFFIPSGWIHAVYTPVDSLVFGGNILHSFNVPMQLRIYEIEDRTRVQPKFRYPFYYEMCWYVLERYVYCVTQRSYLTQEYQRELMLIDAPRKTSVDGFSSDSWLDMEEESCEQQPQEEEEEEEDKEEEGDGADKTPKPPTDDPTSPTSTPPEDQDSTGKKPKAPAIRFLKRTLSNESEESVKSTSMPTDDPKTPTGSPATEVSTKWTHLTEFELKGLKALVEKLESLPENKKCVPEGIEDPQALLEGVKNVLKEHVDDDPTLAITGVPVVSWPKKTAKNRVVGRPKGKLGPASAVKLAANRTTAGARRRRTRCRKCEACLRTECGECHFCKDMKKFGGPGRMKQSCIMRQCIAPVLPHTAVCLVCGEAGKEDTVEEEEGKFNLMLMECSICNEIIHPGCLKIKESEGVVNDELPNCWECPKCNHAGKTGKQKRG | failed to demethylate either of the peptide substrates | failed to demethylate either of the peptide substrates | –
